We go through 15 molecules from article PMC13049513, “Assembly of a homohexameric minichromosome maintenance complex is dependent on ATP and DNA” (The Journal of Biological Chemistry, 2025).

The target of data set [1] is MacMCM KRED (plus-SB mutant K476R–E537D). In words: analytical size-exclusion chromatography (SEC), self-association. To be noted: Protein samples (10 μM); Superdex S200 Increase 10/300 GL; UV absorbance at 280 nm; parent: est. 13.1; read off a plot. For orientation: In gel filtration, larger molecules generally elute earlier.
Data set [2] has as its target MacMCM, minichromosome maintenance protein from Mancarchaeum acidiphilum (Mancarchaeum acidiphilum). In words: SEC; analytical SEC, Superose 6 Increase 10/300 GL, 200 mM NaCl, 20 mM Tris pH 8.0, 5% glycerol; protein 10 uM with equimolar fluorescein-polyT50 ssDNA; 1 mM ATP and 10 mM MgCl2 in the buffer.
The target of data set [3] is MacMCM D311K (minus-SB mutant). In words: analytical size-exclusion chromatography (SEC), self-association. To be noted: Protein samples (10 μM); Superdex S200 Increase 10/300 GL; UV absorbance at 280 nm; parent: est. 13.1; read off a plot.
The target in data set [4] is SsoNPfuCMCM, chimeric MCM of the N-terminal domain of SsoMCM fused with the ATPase domain of PfuMCM (Sulfolobus solfataricus | not stated) (UniProt Q9UXG1). In words: SEC-MALS; SEC-MALLS, Superose S6 Increase 10/300 GL, 200 mM KCl, 50 mM Tris-Cl pH 8.0, 5% glycerol, 0.5 mM DTT; 100 ul protein at 1 to 10 mg/ml; no ligands.
The target of data set [5] is T1, MacMCM^ΔWHD (Candidatus Mancarchaeum acidiphilum, UniProt A0A218NN99, E391Q, form not given).
T1 construct: gene Mia14_0611
T1 sequence (A0A218NN99 entry or part of it E391Q, form open): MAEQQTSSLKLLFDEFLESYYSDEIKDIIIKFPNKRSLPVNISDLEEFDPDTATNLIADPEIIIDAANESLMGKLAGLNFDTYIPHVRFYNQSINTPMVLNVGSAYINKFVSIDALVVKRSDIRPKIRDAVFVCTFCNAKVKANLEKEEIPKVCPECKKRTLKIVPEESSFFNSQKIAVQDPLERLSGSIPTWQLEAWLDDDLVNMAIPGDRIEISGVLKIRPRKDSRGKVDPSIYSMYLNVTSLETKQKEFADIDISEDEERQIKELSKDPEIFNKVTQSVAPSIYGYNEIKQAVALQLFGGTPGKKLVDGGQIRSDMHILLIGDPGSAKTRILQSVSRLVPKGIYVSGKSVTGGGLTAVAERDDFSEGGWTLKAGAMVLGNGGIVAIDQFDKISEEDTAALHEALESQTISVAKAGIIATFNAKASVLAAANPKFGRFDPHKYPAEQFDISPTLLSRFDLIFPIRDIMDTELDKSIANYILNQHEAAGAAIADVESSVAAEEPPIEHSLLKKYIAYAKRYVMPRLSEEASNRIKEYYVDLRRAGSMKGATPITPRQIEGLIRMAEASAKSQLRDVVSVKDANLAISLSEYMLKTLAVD
In words: X-ray crystal structure, […] Å. Format: binding. As to conditions: crystals grown with 10 mM ATP and 10 mM MgCl2; nucleotide modelled as ADP; ATPase site at subunit interface, five of six sites.

Data set [6] has as its target MacMCM DNEK (plus-SB mutant D59N–E61K). In words: analytical size-exclusion chromatography (SEC), self-association. To be noted: Protein samples (10 μM); Superdex S200 Increase 10/300 GL; UV absorbance at 280 nm; parent: est. 13.1; read off a plot.
For data set [7], the target named is T2, MacMCM (Candidatus Mancarchaeum acidiphilum, UniProt A0A218NN99, E391Q).
T2 construct: gene Mia14_0611; full length, codon-optimised gene, N-terminal His10 tag cut with TEV protease, from E. coli BL21(DE3) pLysS; monomer without ligands, homohexamer with ATP and DNA
T2 sequence (A0A218NN99 entry or part of it E391Q): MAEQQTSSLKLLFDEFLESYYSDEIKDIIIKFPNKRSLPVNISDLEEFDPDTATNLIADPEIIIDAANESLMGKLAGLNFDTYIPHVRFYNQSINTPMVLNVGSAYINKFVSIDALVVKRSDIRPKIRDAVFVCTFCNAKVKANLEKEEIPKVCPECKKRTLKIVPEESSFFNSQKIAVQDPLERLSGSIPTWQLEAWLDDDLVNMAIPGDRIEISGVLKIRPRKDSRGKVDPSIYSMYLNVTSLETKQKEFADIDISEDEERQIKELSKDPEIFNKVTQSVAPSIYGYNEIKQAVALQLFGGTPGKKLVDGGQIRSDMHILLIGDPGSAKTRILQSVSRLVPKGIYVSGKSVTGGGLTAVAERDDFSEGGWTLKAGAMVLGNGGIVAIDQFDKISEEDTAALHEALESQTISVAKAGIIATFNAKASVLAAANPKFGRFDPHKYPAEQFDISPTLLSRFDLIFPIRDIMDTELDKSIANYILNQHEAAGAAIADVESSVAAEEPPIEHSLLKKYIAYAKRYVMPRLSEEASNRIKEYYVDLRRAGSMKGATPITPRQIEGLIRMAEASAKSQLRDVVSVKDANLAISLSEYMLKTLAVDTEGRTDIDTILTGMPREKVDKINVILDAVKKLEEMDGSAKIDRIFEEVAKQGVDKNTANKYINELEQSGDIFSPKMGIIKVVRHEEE
In words: analytical SEC: ATP-dependent hexamer formation with ssDNA. Format: binding. As to conditions: 1 mM ATP, 10 mM MgCl2, FAM-polyT50 ssDNA, pH 8.0; Walker B mutant, no ATP hydrolysis.

Data set [8] addresses T1, MacMCM^ΔWHD. The description is as above. Format: binding. As to conditions: 1 mM ATP, 10 mM MgCl2, FAM-polyT50 ssDNA, pH 8.0; Walker B mutant, no ATP hydrolysis.
Data set [9] addresses MacMCM^ΔWHD.E391Q, MacMCM lacking the C-terminal winged-helix domain with the Walker B mutation E391Q (Mancarchaeum acidiphilum). In words: crystal structure; MacMCM^ΔWHD.E391Q crystallised with 10 mM ATP and 10 mM MgCl2, 20 °C; ADP and phosphate in the active sites; 2.59 Å.
Data set [10] has the same target. In words: SEC; analytical SEC, Superose 6 Increase 10/300 GL, 200 mM NaCl, 20 mM Tris pH 8.0, 5% glycerol; protein 10 uM with equimolar fluorescein-polyT50 ssDNA; 1 mM ATP and 10 mM MgCl2 in the buffer.
Data set [11] concerns MacMCM E391Q (Mancarchaeum acidophilum). In words: fluorescence anisotropy. To be noted: Anisotropy: 250 mM potassium glutamate, 20 mM Tris pH 8.0, 1 nM forked DNA, with 4 mM nucleotide and 10 mM MgCl2 where present; temperature not stated (EMSA …). For orientation: In fluorescence polarisation assays a small probe gives low polarisation when free and higher when bound to something large.

Data set [12] concerns MacMCMΔWHD E391Q (Mancarchaeum acidophilum), PDB:8Q67_1. In words: fluorescence anisotropy. As to conditions: Anisotropy: 250 mM potassium glutamate, 20 mM Tris pH 8.0, 1 nM forked DNA, with 4 mM nucleotide and 10 mM MgCl2 where present; temperature not stated (EMSA …).
Data set [13] concerns the target MacMCM NDSK (plus-SB mutant N484D–S532K). In words: analytical size-exclusion chromatography (SEC), self-association. As to conditions: Protein samples (10 μM); Superdex S200 Increase 10/300 GL; UV absorbance at 280 nm; parent: est. 13.1; read off a plot.
Data set [14] has as its target MacMCM triple site minus-SB mutant (D311K, D366K, R543E). Described as above. As to conditions: Protein samples (10 μM); Superdex S200 Increase 10/300 GL; UV absorbance at 280 nm; parent: est. 13.1; read off a plot.
Data set [15] concerns the target MacMCM R543E (minus-SB mutant). The data set is described as above. As to conditions: Protein samples (10 μM); Superdex S200 Increase 10/300 GL; UV absorbance at 280 nm; parent: est. 13.1; read off a plot.
Data set [16] deals with MacMCM D366K (minus-SB mutant). The description is as above. To be noted: Protein samples (10 μM); Superdex S200 Increase 10/300 GL; UV absorbance at 280 nm; parent: est. 13.1; read off a plot.
In data set [17] the target is MacMCM^E391Q, Walker B mutant of MacMCM (Mancarchaeum acidiphilum). In words: SEC; analytical SEC, Superose 6 Increase 10/300 GL, 200 mM NaCl, 20 mM Tris pH 8.0, 5% glycerol; protein 10 uM with equimolar fluorescein-polyT50 ssDNA; 1 mM ATP and 10 mM MgCl2 in the buffer.
Data set [18] concerns the target T3, MacMCM triple-site plus-SB mutant (D59N–E61K, K476R–E537D, N484D–S532K).
T3 chain: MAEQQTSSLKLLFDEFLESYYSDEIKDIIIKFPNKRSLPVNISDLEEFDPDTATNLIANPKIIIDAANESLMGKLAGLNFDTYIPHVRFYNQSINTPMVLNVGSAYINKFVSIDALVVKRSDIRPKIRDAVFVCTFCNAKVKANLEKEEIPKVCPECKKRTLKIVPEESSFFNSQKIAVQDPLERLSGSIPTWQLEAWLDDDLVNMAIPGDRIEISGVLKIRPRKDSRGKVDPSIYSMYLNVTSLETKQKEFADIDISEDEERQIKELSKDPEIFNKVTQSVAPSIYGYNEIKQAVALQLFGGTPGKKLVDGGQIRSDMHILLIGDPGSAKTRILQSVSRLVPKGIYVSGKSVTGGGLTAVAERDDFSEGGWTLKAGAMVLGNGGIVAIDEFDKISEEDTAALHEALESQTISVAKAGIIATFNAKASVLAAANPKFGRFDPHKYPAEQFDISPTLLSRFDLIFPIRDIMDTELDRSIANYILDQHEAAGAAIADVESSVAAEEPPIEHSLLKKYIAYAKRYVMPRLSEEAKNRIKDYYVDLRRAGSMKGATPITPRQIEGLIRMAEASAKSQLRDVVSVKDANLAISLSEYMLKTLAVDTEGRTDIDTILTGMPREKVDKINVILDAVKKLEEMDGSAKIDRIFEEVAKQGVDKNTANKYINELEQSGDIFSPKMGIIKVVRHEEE
In words: analytical size-exclusion chromatography (SEC), self-association. As to conditions: chain shown with the change; Protein samples (10 μM); Superdex S200 Increase 10/300 GL; UV absorbance at 280 nm; parent: est. 13.1; read off a plot.

In general, stoichiometry N refers to the number of molecules, sites or subunits per partner or assembly. Broadly, the Kd is a measure of binding affinity in units of concentration.

In the case of “MacMCM, minichromosome maintenance protein from Mancarchaeum acidiphilum K476R; E537D”, the other: SEC peak retention volume in data set [1] was 13.3 mL.
As for “MacMCM, minichromosome maintenance protein from Mancarchaeum acidiphilum (enzyme)”, the stoichiometry N in data set [2] was 6.
For the molecule “MacMCM, minichromosome maintenance protein from Mancarchaeum acidiphilum D311K”, the other: SEC peak retention volume in data set [3] was 13.4 mL.
Molecule “SsoNPfuCMCM, chimeric MCM of the N-terminal domain of SsoMCM fused with the ATPase domain of PfuMCM (from UniProt Q9UXG1 2-321) (enzyme)” registered a stoichiometry N in data set [4] of 6.
For `Nc1ncnc2c1ncn2[C@@H]1O[C@H](COP(=O)(O)OP(=O)(O)O)[C@@H](O)[C@H]1O` [ADP], the “X-ray crystal structure, 2.6 Å” value in data set [5] is reported as “ADP was identified in five of the six ATPase active sites”.
For “MacMCM, minichromosome maintenance protein from Mancarchaeum acidiphilum D59N; E61K”, the other: SEC peak retention volume in [6] came to 12.9 mL.
For the molecule `Nc1ncnc2c1ncn2[C@@H]1O[C@H](COP(=O)(O)OP(=O)(O)OP(=O)(O)O)[C@@H](O)[C@H]1O` [ATP], the “analytical SEC: ATP-dependent hexamer formation with ssDNA” value in [7] was “both MacMCM^E391Q and MacMCM^ΔWHD.E391Q coeluted with ssDNA at elution volumes consistent with a homohexamer”; in data set [8], “both MacMCM^E391Q and MacMCM^ΔWHD.E391Q coeluted with ssDNA at elution volumes consistent with a homohexamer”.
For “MacMCM^ΔWHD.E391Q, MacMCM lacking the C-terminal winged-helix domain with the Walker B mutation E391Q (domain or fragment)”, the stoichiometry N in [9] and in [10] was 6 each time.
As for “GGGACGCGTCGGCCTGGCACGTCGGCCGCTGCGGCCAGGCACCCGATGGCGTTTGTTTGTTTGTTTGTTTGTTT / TTTGTTTGTTTGTTTGTTTGTTTGTTTGTTTGCCGACGTGCCAGGCCGACGCGTCCC [forked DNA]”, the Kd stood at 780 nM in data set [11] and 114 nM in data set [12].
For “MacMCM, minichromosome maintenance protein from Mancarchaeum acidiphilum N484D; S532K”, in [13], the other: SEC peak retention volume was found to be 13 mL.
For the molecule “MacMCM, minichromosome maintenance protein from Mancarchaeum acidiphilum D311K; D366K; R543E”, the other: SEC peak retention volume in [14] stood at 13.3 mL.
Turning to “MacMCM, minichromosome maintenance protein from Mancarchaeum acidiphilum R543E”, in [15], the other: SEC peak retention volume amounted to 13.3 mL.
“MacMCM, minichromosome maintenance protein from Mancarchaeum acidiphilum D366K”: in data set [16], the other: SEC peak retention volume came out at 13.4 mL.
For the molecule “MacMCM^E391Q, Walker B mutant of MacMCM (enzyme)”, the stoichiometry N in data set [17] came out at 6.

B1: MacMCM, minichromosome maintenance protein from Mancarchaeum acidiphilum D59N; E61K; K476R; E537D; N484D; S532K (protein)
chain: T3 chain
Turning to B1, the other: SEC peak retention volume in [18] was found to be 11.6 mL.
